From doi:10.1101/521658v1

Experiments:
[1] = substrate: Nc1ncnc2c1ncn2[C@@H]1O[C@H](COP(=O)(O)OP(=O)(O)OP(=O)(O)O)[C@@H](O)[C@H]1O; assay: purified protein, by the assay type; conditions: pH 7.8
[2] = substrate: NC(=O)c1ccc[n+]([C@@H]2O[C@H](COP(=O)(O)OP(=O)(O)OC[C@H]3O[C@@H](n4cnc5c(N)ncnc54)[C@H](O)[C@@H]3O)[C@@H](O)[C@H]2O)c1; assay: purified protein, by the assay type; conditions: pH 7.8

B1: 6HIS-Δ38NADKc-1 (with AtCaM1/Ca^2+) (Arabidopsis thaliana) (protein)
chain: AGELLLRRRKLDQGASMGYKDVKIAPLIERKDSGRRSNLERFSHYVARQLGFEDPNEYPQLCKLANGYLLKTKGYDENVDEYLENEAERDSLYVHLLEEFDRCILTYFSFNWTQSSNLISQALSDESDQKVPKLKDFVMAATRKQRFERVTKDLKVKRVISTLVEEMRVIGSGSSEPHCTEVMSPVAHNKRSPVLLLMGGGMGAGKSTVLKDIFLESFWSEAQADAVVIEADAFKETDVIYRALSSRGHHDDMLQTAELVHQSSTDAASSLLVTALNDGRDVIMDGTLSWEPFVEQMIEMARNVHKQKYRMGEGYKVSEEGTITEKYWEEEEEETKENGKQQNLKPYRIELVGVVCDAYLAVARGIRRALMVKRAVRVKPQLNSHKRFANAFPKYCELVDNARLYCTNAVGGPPRLIAWKDGNSKLLVDPEDIDCLKRVSSLNPDAESIYELYPDPSQLSKPGSVWNDVVLVPSRPKVQKELSDAIRRIEKAQPKN
[1]
  Km: 203(±30) uM
  kcat: 41 ± 2 s⁻¹
  kcat/Km: 200000 M⁻¹ s⁻¹
[2]
  Km: 147 (±17) uM
  kcat: 42 ± 2 s⁻¹
  kcat/Km: 280000 M⁻¹ s⁻¹
